Test results published in article PMC5345052, “Auto-phosphorylation Represses Protein Kinase R Activity” (Scientific Reports, 2017).
Numbering of substitutions follows the chain as printed. Names and notes keep the numbering of the source. Values belong to the molecule of their own block, whether it stands above or below them.

Legend:
[1] = molecular target: truncated phosphor-transfer mutant PKR kinase domain (KD-K296R) with N-terminal split Venus V2 tag (UniProt P19525); test: split Venus fluorescence complementation in HEK293 cells; details: 20 ng/well of each plasmid construct; partner kinase domain carries K296R; n = 5; parent: est. 3.0; read off a plot
[2] = molecular target: truncated PKR kinase domain with N-terminal split Venus V2 tag (UniProt P19525); test: as above; details: 20 ng/well of each plasmid construct, read off a plot
[3] = molecular target: PKR RNA-binding domain with C-terminal split Venus V1 tag; test: as above; details: 20 ng/well of each plasmid construct; n = 5; parent: est. 2.9; read off a plot
[4] = molecular target: T1, truncated phosphor-transfer mutant PKR kinase domain (KD-K296R) with N-terminal split Venus V2 tag, P19525; test: as above; details: chain shown with the change; 20 ng/well of full-length PKR and 30 ng/well of the truncated KD; partner kinase domain carries K296R; n = 7; parent: est. 4.2; read off a plot
T1 chain: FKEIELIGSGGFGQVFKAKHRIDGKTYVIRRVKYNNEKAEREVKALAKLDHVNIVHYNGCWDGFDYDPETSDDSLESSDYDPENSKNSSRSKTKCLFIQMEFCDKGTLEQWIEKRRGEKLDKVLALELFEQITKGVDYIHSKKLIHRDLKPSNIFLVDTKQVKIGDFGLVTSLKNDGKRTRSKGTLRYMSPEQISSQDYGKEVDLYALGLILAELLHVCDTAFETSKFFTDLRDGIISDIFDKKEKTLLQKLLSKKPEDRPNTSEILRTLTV

[5] = molecular target: T2, kinase-dead PKR (K296R), recombinant His-tagged full-length protein kinase R (human), P19525; test: liquid chromatography; recombinant PKR isolated during purification as separate monomer and dimer species; details: remark: other sources report otherwise
T2 chain: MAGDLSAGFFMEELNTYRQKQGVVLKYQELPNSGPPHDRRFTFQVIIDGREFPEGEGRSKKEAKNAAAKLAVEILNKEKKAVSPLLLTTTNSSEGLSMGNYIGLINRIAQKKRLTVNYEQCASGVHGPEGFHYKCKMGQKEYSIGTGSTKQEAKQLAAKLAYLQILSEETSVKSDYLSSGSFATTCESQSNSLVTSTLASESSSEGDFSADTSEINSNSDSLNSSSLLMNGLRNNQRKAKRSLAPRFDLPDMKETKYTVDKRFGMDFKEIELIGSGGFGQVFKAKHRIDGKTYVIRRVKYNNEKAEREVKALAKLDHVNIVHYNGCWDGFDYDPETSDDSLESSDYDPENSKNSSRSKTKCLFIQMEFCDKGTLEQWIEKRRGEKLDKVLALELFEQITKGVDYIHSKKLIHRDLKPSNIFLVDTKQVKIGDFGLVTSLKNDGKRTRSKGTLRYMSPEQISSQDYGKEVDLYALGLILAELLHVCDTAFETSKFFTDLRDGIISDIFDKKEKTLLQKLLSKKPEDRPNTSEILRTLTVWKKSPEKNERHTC

[6] = molecular target: the molecule itself; test: as above
[7] = 5 μM 2-aminopurine (2AP), n = 6, parent: est. 3.8

response [1]: 3.5
response [2, 7]: 4.3
response ([2]; n = 7, parent: est. 2.9): 2.9
Molecule: PKR RNA-binding domain with C-terminal split Venus V1 tag S33A; T42A

response [1]: 2.6
response [2, 7]: 3.1
response ([2]; n = 7, parent: est. 2.9): 2.5
Molecule: PKR RNA-binding domain with C-terminal split Venus V1 tag S33E; T42E

response [3]: 3
Molecule: truncated PKR kinase domain with N-terminal split Venus V2 tag (from UniProt P19525) K296R

response [4]: 21
B1: full-length PKR with N-terminal split Venus V1 tag, P19525 H37R; S33A; T42A (protein)
chain: T2 chain with S33A, H37R, T42A, R296K

response [4]: 3.4
B2: full-length PKR with N-terminal split Venus V1 tag, P19525 K261D (protein)
chain: T2 chain with K261D, R296K

response [4]: 3.1
B3: full-length PKR with N-terminal split Venus V1 tag, P19525 H37R; S33E; T42E (protein)
chain: T2 chain with S33E, H37R, T42E, R296K

stoichiometry N [5]: 2
B4: kinase-dead PKR (K296R), recombinant His-tagged full-length protein kinase R, P19525 1-551 (enzyme)
chain: T2 chain

response [4]: 3.6
B5: full-length PKR with N-terminal split Venus V1 tag, P19525 S33E; T42E; K261D (protein)
chain: T2 chain with S33E, T42E, K261D, R296K

response [4]: 3.8
B6: full-length PKR with N-terminal split Venus V1 tag, P19525 H37R (protein)
chain: T2 chain with H37R, R296K

response [4]: 12
B7: full-length PKR with N-terminal split Venus V1 tag, P19525 S33E; T42E; R262D (protein)
chain: T2 chain with S33E, T42E, R262D, R296K

response [4]: 13
B8: full-length PKR with N-terminal split Venus V1 tag, P19525 R262D (protein)
chain: T2 chain with R262D, R296K

B9: PKR K296R-S33E-T42E, recombinant His-tagged full-length protein kinase R (enzyme, human, UniProt P19525 1-551, looked up)
chain: T2 chain with S33E, T42E
notes: protein kinase R (PKR), human, full-length molecule with K296R and the phosphor-mimetic S33E and T42E; also called triple mutant; source: isolated by liquid chromatography as monomer and as dimer
stoichiometry N [6]: 2
